Experimental findings from patent publication US20190241671A1 (Merck KGaA, published 2019) are described below.

Positions count from the first letter of the chain named.

The chains are these.
T1: CD19 antigen on Daudi lymphoma cells (human, UniProt P15391 20-556)
T1 construct: whole, on cells; also called Daudi cells
T1 sequence (looked up): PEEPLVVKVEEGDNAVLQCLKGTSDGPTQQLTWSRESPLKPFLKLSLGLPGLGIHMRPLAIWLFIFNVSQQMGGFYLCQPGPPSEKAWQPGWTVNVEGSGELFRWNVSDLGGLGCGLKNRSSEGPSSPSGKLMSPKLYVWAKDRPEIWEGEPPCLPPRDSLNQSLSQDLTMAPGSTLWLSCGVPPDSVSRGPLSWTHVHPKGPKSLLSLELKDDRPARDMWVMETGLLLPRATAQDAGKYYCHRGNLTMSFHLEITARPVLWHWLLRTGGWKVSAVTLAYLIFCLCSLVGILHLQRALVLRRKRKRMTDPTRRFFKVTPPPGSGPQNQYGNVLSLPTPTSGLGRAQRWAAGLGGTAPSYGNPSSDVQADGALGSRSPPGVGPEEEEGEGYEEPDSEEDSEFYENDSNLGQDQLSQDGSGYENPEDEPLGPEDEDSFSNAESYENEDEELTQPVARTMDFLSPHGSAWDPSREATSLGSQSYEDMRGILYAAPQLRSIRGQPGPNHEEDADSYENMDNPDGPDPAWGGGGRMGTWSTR

B1: B4 VHv1/VKv1 antibody (antibody, V domains shown)
VH: QVQLQQPGAEVVKPGASVRLSCETSGYTFTSNWMHWVKQRPDQGLEWIGEIDPSDSYTNYNQKFKGKAELTVDKSSSTAYMEVSDLTSEDSAVYYCARGSNPYYYAMDYWGQGTSVTVSS
VL: QIALTQEPAIMSASPGEKVTMTCSASSGVNYMHWYQQKPGTSPKRWIYDTSKLDSGVPARFSGSGSGTSYSLTISSMEAEDAATYYCHQRGSYTFGGGTKLEIK
B2: B4 VHv2/VKv1 antibody (antibody, V domains shown)
VH: B1 VH with E23K, D42G
VL: B1 VL
B3: B4 VHv1/VKv2 antibody (antibody, V domains shown)
VH: B1 VH
VL: B1 VL with Q1D, A3V, E7S, I10T, M11L
B4: B4 VHv3/VKv4 antibody (antibody, V domains shown)
VH: B1 VH with Q5E, V12K, R19K, L20V, E23K, T24A, D42G, E69K, S88A
VL: B1 VL with A3V, E7S, I10T, M11L, V19A, S51D, L53T, D54A
B5: B4 VHv4/VKv3 antibody (antibody, V domains shown)
VH: QVQLEQPGAEVVKPGASVKVSCKTSGYTFTSNWMHWVKQTPGKGLEWIGEIDPSDSYTNYNQKFDGKAKLTVDKSSSTAYMEVSDLTAEDSATYYCARGSNPYYYAMDYWGQGTSVTVSS
VL: B1 VL with A3V, E7S, I10T, M11L, V19A, V29A, D54A, S75E
B6: B4 VHv2/VKv2 antibody (antibody, V domains shown)
VH: B1 VH with E23K, D42G
VL: B1 VL with Q1D, A3V, E7S, I10T, M11L
B7: B4 VH0/VK0 antibody (antibody, V domains shown)
VH: B1 VH with E23K, D42G, E69K, D85S
VL: B1 VL with A3V, E7S, D54A
notes: Expressed from pdHL12 as intact heavy and light chains; also called parental B4 antibody
B8: B4 VHv3/VKv3 antibody (antibody, V domains shown)
VH: B5 VH with V12K, T24A, T40R, K43Q, D65K, T93V
VL: B1 VL with A3V, E7S, I10T, M11L, V19A, V29A, D54A, S75E
B9: B4 VHv4/VKv4 antibody (antibody, V domains shown)
VH: B5 VH
VL: B1 VL with A3V, E7S, I10T, M11L, V19A, S51D, L53T, D54A
B10: B4 VHv6/VKv4 antibody (antibody, V domains shown)
VH: B5 VH with T40R, K43Q, A88S
VL: B1 VL with A3V, E7S, I10T, M11L, V19A, S51D, L53T, D54A
notes: also called 10
B11: B4 VHv5/VKv4 antibody (antibody, V domains shown)
VH: B5 VH with V12K, T24A, K38R, T40A, A88S
VL: B1 VL with A3V, E7S, I10T, M11L, V19A, S51D, L53T, D54A

One experiment concerns the target T1, CD19 antigen on Daudi lymphoma cells. Nature of the experiment: FACS competition on Daudi cells; unlabeled antibody 100 ng/ml (1x) vs competitor biotin-B4 VH0/VK0 100 ng/ml. Here is the method:
(§1) Briefly, a titration series was prepared of biotin-labeled B4 VH0/VK0 antibody pre-mixed at a final concentration of 100 ng/ml with one of the unlabeled, experimental B4 VHvx/VKvy antibodies at 800 ng/ml, 400 ng/ml, 200 ng/ml, 100 ng/ml, and 50 ng/ml in a PBS/2% serum buffer. As a control, the biotin-labeled antibody was pre-mixed with unlabeled B4 VH0/VK0 antibody at the same concentrations as above (inhibition control) or with buffer only (positive binding control). The combined antibodies were added to Daudi cells for 30 minutes at 4° C. A 1:200 dilution of FITC-labeled streptavidin was added to the cells and the samples were incubated for a further 30 minutes at 4° C. Bound amount of labeled B4 VH0/VK0 antibody was quantitated by FACS analysis, and the results were expressed as “percent inhibition,” relative to the positive binding control. The tested antibodies were B4 VH0/VK0 (C), B4 VHv1/VKv1 (1), B4 VHv2/VKv1 (2), B4 VHv1/VKv2 (3), B4 VHv2/VKv2 (4), B4 VHv3/VKv3 (5), B4 VHv4/VKv3 (6), B4 VHv3/VKv4 (7), B4 VHv4/VKv4 (8), B4 VHv5/VKv4 (9), and B4 VHv6/VKv4 (10).
Consider B1, for which the “% inhibition of labeled B4 binding” value turned out to be 16%.

In the case of B2, the “% inhibition of labeled B4 binding” value came to 16%.

Take B3: the “% inhibition of labeled B4 binding” value was 20%.

On to B4, for which the “% inhibition of labeled B4 binding” value came to 20%.

Turning to B5, the “% inhibition of labeled B4 binding” value came out at 16%.

B6: the “% inhibition of labeled B4 binding” value is 16%.

B7: the “% inhibition of labeled B4 binding” value is 28%.

B8: the “% inhibition of labeled B4 binding” value is 20%.

For the molecule B9, the “% inhibition of labeled B4 binding” value is 16%.

Another experiment has the same target. Nature of the experiment: FACS competition on Daudi cells; unlabeled antibody 200 ng/ml (2x) vs competitor biotin-B4 VH0/VK0 100 ng/ml. How it is done: as §1
In the case of B1, the “% inhibition of labeled B4 binding” value is 28%.

For B2, the “% inhibition of labeled B4 binding” value amounted to 28%.

Consider B3, for which the “% inhibition of labeled B4 binding” value was 32%.

With B4, the “% inhibition of labeled B4 binding” value was found to be 36%.

On to B5, for which the “% inhibition of labeled B4 binding” value stood at 32%.

In the case of B6, the “% inhibition of labeled B4 binding” value stood at 32%.

Take B7: the “% inhibition of labeled B4 binding” value amounted to 44%.

As for B8, the “% inhibition of labeled B4 binding” value was found to be 36%.

Take B9: the “% inhibition of labeled B4 binding” value was determined as 32%.

The target is the same in the next experiment. Briefly: FACS competition on Daudi cells; unlabeled antibody 400 ng/ml (4x) vs competitor biotin-B4 VH0/VK0 100 ng/ml. Here is the method:
as §1
Regarding B1, the “% inhibition of labeled B4 binding” value amounted to 44%.

Regarding B2, the “% inhibition of labeled B4 binding” value worked out at 40%.

For the molecule B3, the “% inhibition of labeled B4 binding” value is 44%.

Consider B4, for which the “% inhibition of labeled B4 binding” value came out at 52%.

With B5, the “% inhibition of labeled B4 binding” value amounted to 44%.

For B6, the “% inhibition of labeled B4 binding” value is 44%.

Consider B7, for which the “% inhibition of labeled B4 binding” value stood at 56%.

Take B8: the “% inhibition of labeled B4 binding” value came out at 40%.

In the case of B9, the “% inhibition of labeled B4 binding” value was 48%.

For another experiment the target is unchanged. Nature of the experiment: FACS competition on Daudi cells; unlabeled antibody 800 ng/ml (8x) vs competitor biotin-B4 VH0/VK0 100 ng/ml. How it is done:
as §1
Turning to B1, the “% inhibition of labeled B4 binding” value is 56%.

Regarding B2, the “% inhibition of labeled B4 binding” value came out at 56%.

For B3, the “% inhibition of labeled B4 binding” value was found to be 56%.

On to B4, for which the “% inhibition of labeled B4 binding” value was determined as 60%.

Take B5: the “% inhibition of labeled B4 binding” value was found to be 56%.

On to B6, for which the “% inhibition of labeled B4 binding” value was found to be 56%.

With B7, the “% inhibition of labeled B4 binding” value turned out to be 68%.

As for B8, the “% inhibition of labeled B4 binding” value worked out at 60%.

As to B9, the “% inhibition of labeled B4 binding” value turned out to be 60%.

For a further experiment the target is unchanged. Nature of the experiment: FACS competition on Daudi cells; unlabeled antibody 100 ng/ml (1x) vs competitor biotin-B4 VH0/VK0 100 ng/ml. This is another data set of the same source. Here is the method: as §1
B10: the “% inhibition of labeled B4 binding” value is 60%.

For the molecule B11, the “% inhibition of labeled B4 binding” value amounted to 57%.

Regarding B7, the “% inhibition of labeled B4 binding” value was found to be 67%.

The target is the same in another experiment. Briefly: FACS competition on Daudi cells; unlabeled antibody 200 ng/ml (2x) vs competitor biotin-B4 VH0/VK0 100 ng/ml. This is another data set of the same source. Here is the method: as §1
Turning to B10, the “% inhibition of labeled B4 binding” value was 70%.

As to B11, the “% inhibition of labeled B4 binding” value came out at 70%.

On to B7, for which the “% inhibition of labeled B4 binding” value is 83%.

For the next experiment the target is unchanged. Briefly: FACS competition on Daudi cells; unlabeled antibody 400 ng/ml (4x) vs competitor biotin-B4 VH0/VK0 100 ng/ml. The source holds these as a separate data set. How it is done: as §1
For B10, the “% inhibition of labeled B4 binding” value was 80%.

As for B11, the “% inhibition of labeled B4 binding” value came to 87%.

In the case of B7, the “% inhibition of labeled B4 binding” value is 90%.

The target is the same in the next experiment. Briefly: FACS competition on Daudi cells; unlabeled antibody 800 ng/ml (8x) vs competitor biotin-B4 VH0/VK0 100 ng/ml. The source holds these as a separate data set. Here is the method: as §1
On to B10, for which the “% inhibition of labeled B4 binding” value amounted to 87%.

B11: the “% inhibition of labeled B4 binding” value turned out to be 90%.

Regarding B7, the “% inhibition of labeled B4 binding” value came to 93%.

A further experiment shares this target. Nature of the experiment: FACS competition on Daudi cells; unlabeled antibody 50 ng/ml (0.5x) vs competitor biotin-B4 VH0/VK0 100 ng/ml. Here is the method:
as §1
In the case of B1, the “% inhibition of labeled B4 binding” value was found to be 12%.

Regarding B2, the “% inhibition of labeled B4 binding” value turned out to be 8%.

Regarding B3, the “% inhibition of labeled B4 binding” value came to 12%.

Consider B4, for which the “% inhibition of labeled B4 binding” value came to 12%.

In the case of B5, the “% inhibition of labeled B4 binding” value stood at 12%.

For B6, the “% inhibition of labeled B4 binding” value was determined as 8%.

For the molecule B7, the “% inhibition of labeled B4 binding” value turned out to be 16%.

As for B8, the “% inhibition of labeled B4 binding” value came to 12%.

With B9, the “% inhibition of labeled B4 binding” value was determined as 12%.

A further experiment shares this target. Described as above. The source holds these as a separate data set. How it is done:
as §1
Consider B10, for which the “% inhibition of labeled B4 binding” value amounted to 53%.

Take B11: the “% inhibition of labeled B4 binding” value was found to be 47%.

For B7, the “% inhibition of labeled B4 binding” value was 50%.
